Variants at the floor of the assay were thinned out.
B1: TPR 5TU (parent)
chain: GGAUCUUCUCGAUCUAACAAAAAAGACAAAUCUGCCACAAAGCUUGAGAGCAUCUUCGGAUGCAGAGGCGGCAGCCUUCGGUGGCGCGAUAGCGCCAACGUUCUCAACUAUGACACGCAAAACGCGUGCUCCGUUGAAUGGAGUUUAUCAUG

Variants of: B1
Test: polymerase ribozyme fitness, log enrichment relative to wild type (log ratio); higher = more active; in vitro selection for triplet polymerase activity
Summary of the method: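 Streptavidin-bead capture of gel-excised extended constructs, followed by RT-PCR, closed a single triplicate in vitro selection round. That round began by annealing PCR-built, transcribed mutant libraries of each subunit of a heterodimeric triplet polymerase ribozyme with a biotinylated primer, the partner subunit and triplets, then incubating them frozen at −7 °C. After Illumina sequencing of inputs and outputs, genotypes needed ≥10 input reads and ≥1 read per output. Fitness is the base-2 logarithm of genotype enrichment over wild-type enrichment, using inverse-variance-weighted replicate averages.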

Variant | polymerase ribozyme fitness (log ratio)
U15G A28U A49C A66C C79A A97U G124A | ≤ -4.2
U15A A22C C72A C87G G88U G133C | ≤ -4.2
A16C G50A A64G C75A G83C C131A | ≤ -4.2
U15G U135G | -3.65
U15G G70A C87U U90C C93U | ≤ -4.2
A16U C18A A22U G48U U56G A66G G84U U144A | ≤ -4.2
C14U A52G G62A C96G U104G | ≤ -4.2
U15A A22C A40C A60G | 0.68
A16U A37C C63U C95U C123A G141U | -4.01
C14U A30G G81A C85G A97G G133A | ≤ -4.2
U15G A24U U145G A147C | -3.02
A16G A21U A97G | -1.74
A16G G58A C129G | -4.19
C14U G81U G84U | -2.93
A16U A37C A52G G84A G140C | ≤ -4.2
A17C A39G U44G C63A A73G A113G A121U G141A | ≤ -4.2
A16U A20U C54U G58C G59A C93U C114U U148A | ≤ -4.2
A16G A40U G59C U104A | -1.85
A16C C32A A41U A60G G74U C93G A147U | ≤ -4.2
A16G C38A C76A C85U U134A | -4
A16U C93A | -3.85
U15A A20C G74C G81A C105G U135G U145G U148A | ≤ -4.2
U15A A30G U78G C87G | ≤ -4.2
A16C A22C U82G C85U A98C G136U | ≤ -4.2

Variant | polymerase ribozyme fitness (log ratio)
A16U G46C U61A G67C G83C A142C | ≤ -4.2
U15C U44C U61A G70U G80A C96U | ≤ -4.2
A16U A39U A49U G50C G84U A119G A121G G140U | ≤ -4.2
A16U U31C C35U A37C C76G C105G G117A | ≤ -4.2
A16C A22G U53A G92U | -2.34
U15G A24G C35U U55A U77G U90G G94A A97U G140U | ≤ -4.2
A16G A49G A73C A91G U144C | ≤ -4.2
A16U A20C C27U A37U G59C A64C C85U A113G A120U C132U | ≤ -4.2
C14U G84U | -3.29
U15A A20U A23G A37G G68C C96U C129G U144A | ≤ -4.2
A16G U53A U56G A89C C96U U111C | ≤ -4.2
C14U U44A | ≤ -4.2
C14U C123G | -1.9
C14U U56G U78C G86U | -4.1
U15C A24C C36U A40U C79G C93G G100A C125G U139C | ≤ -4.2
A16C | -1.01
A16G | -0.642
A16U | -1.62
U15C C85U | -0.718
A16G A21C G80A C103A U104G | ≤ -4.2
A16U A41C G42A G65A A66G C87A U90G | ≤ -4.2
A16G C38A A147C | -2.97
A16U A26C A29U G68C G83A | ≤ -4.2
A16G A30U G81C C95U A110G | ≤ -4.2

Variant | polymerase ribozyme fitness (log ratio)
A16G U56C C76A | -0.363
A16G U44A A73G C87U C93U | ≤ -4.2
U15A U55A C99G | -1.2
A16U A30U C87A | ≤ -4.2
U15G C38U A41C A52U G59U G65C G141A | ≤ -4.2
U15C A26G U44G C54U C63U C87G U90C | ≤ -4.2
A16U U31G G50A G58A C85U U104G A106U U134A | ≤ -4.2
C14U U33G G59C C87U G124U G141C G152U | -4.16
C14U C76G | ≤ -4.2
U15A C51U G58U C69G | -1.91
A16G G46U G84A C105U G133C A138G A142G | ≤ -4.2
U15C C38U G86A C87U C99U | -3.87
C14U G42A G59A C87A | ≤ -4.2
A16U C54G C87A A98U | ≤ -4.2
U15G C85A | -1.35
A16C U135A | -2.12
U15G G50U C93A G143A | -3.35
A16C A21C U61A | -1.52
U15A A73U C76G C118A A138C G141C | ≤ -4.2
A16C A21C A49C C54U C96U | -4.18
A16C C87U C118U | -2.27
A16U A26G U53C G84C C87A G128C G141A | ≤ -4.2
U15A A26G U77G C95A | ≤ -4.2
A16U C57A G58U C75G C87A C99U A142C U144C | ≤ -4.2

Variant | polymerase ribozyme fitness (log ratio)
C14U A39G C93U G143A | ≤ -4.2
A16U A19C C85U | -2.05
U15C U56A C69A G84A G136A | -0.468
U15G C18A C54A G94A G117C C125A | -1.44
A16C A21U G59A G94A A98G | -2.66
U15C G88A | -3.6
A16C A30U G68C C79G | ≤ -4.2
U15A A19C A23U G46C U53G C57A G68A G71A C93G U111G G141U | ≤ -4.2
U15A A40G U55A A60U C114A | ≤ -4.2
U15G A47G C54U C93G C96U U104C A150G | -3.79
A16G C57A C85G A121U | -2.53
A16C A24U C57U | -2.44
A16U G42A G59A G71A A89G | ≤ -4.2
A16C A21U C76U C105U | -1.77
A16C C38A C76U | -2.07
A16C G92U C105U A107U A110C A138C | ≤ -4.2
A17C A28U G88C U144C | -4.01
A16C A24U G58A G92U | -2.2
C14U G86U | -3.21
A16G C27G A30U U61A A97U G128U | ≤ -4.2
C14U A26G G92C | ≤ -4.2
A16U G84U C129A | ≤ -4.2
C14U G58U | -0.884
C14U U45G C87A C95U C103A | -4.17

Variant | polymerase ribozyme fitness (log ratio)
U15G A37U A52C U90C U148G | ≤ -4.2
C14U A91G C116U U134A | ≤ -4.2
A16U C93U A106C | -3.19
A17C A30U A60C G62A A66G G84A C118A | ≤ -4.2
U15A C76U C99G C105G | ≤ -4.2
U15A C75G C95U A142C | ≤ -4.2
U15G G25C A41C U55G C96A U139C G152U | ≤ -4.2
U15G U31A U55A C93G | -2.44
A16U C54A A60C A73C G86A A89C A119G G126U | ≤ -4.2
A16G A26U G65U C103G A107G C114G | ≤ -4.2
A16U C93U C116U G117U A121G | -2.05
U15G G83U | -0.494
U15A C87A A107U C108A | ≤ -4.2
A16U C51U G86U U104A C108A G124U | ≤ -4.2
A16C C93A | -3.94
A16G A37C U55G U56A G59A G83A C87U | -3.9
A16G G48A C57G G58A A60C G88A C114A G141A | ≤ -4.2
U15A A20G A26U A39G A47C C79U C103G G140A | ≤ -4.2
A16U G92U C99G | -3.45
U15G A122G | -1.2
C14U C27G C35G A39U U82A G86A A97U | ≤ -4.2
U15C C51A A60U C93A C96G G140A | ≤ -4.2
C14U A52G U53G G74A A91C C96U G141U | ≤ -4.2
A16U G83U C85U C103G U135G | ≤ -4.2

Variant | polymerase ribozyme fitness (log ratio)
A16C C35G A66C G71A U82C C87A | ≤ -4.2
A16U C76G G80C | ≤ -4.2
A16C C108U A147U | -3.42
A16U C87U A89U G140U G143A | ≤ -4.2
U15A U56A G70A | -4.2
A16U A20C U31G G42C C87G G88C | ≤ -4.2
A16C A121G | -1.15
A16C C54U C85A | -3.31
A16C G50A C96A | -3.37
C14U A41U C69A C85U | ≤ -4.2
A16G A17U A26U A41U C96A U102A G143C | ≤ -4.2
A16G C99U | -1.33
U15C G50C U101G C105U | -1.68
U15G A17U G25A U61G C93G G140U | ≤ -4.2
A16U A22U A37G C72U | -3.87
C14U C51U U135C | -3.66
U15A A20C C76U U82G A91U C118A G140C | ≤ -4.2
U15A A17U G65U | ≤ -4.2
U15G A37U U56A C57A C123U | -1.55
A16U C32G A66U C72U C85G | ≤ -4.2
A16G U31G G46A U55A C95G | ≤ -4.2
A16G A47G G50C G59A G83U C114A | ≤ -4.2
A16U A52C | -2.96
C14U C35U G59C A60G C85U U104A A120U G128U A147G | ≤ -4.2

Variant | polymerase ribozyme fitness (log ratio)
U15A C18G U146G | -0.119
C14U A23U A37C A52G G58C C85G A119C A137U | ≤ -4.2
A16C C38A | -1.34
C14U C96U | -0.908
A17C A19C U55A G94A | 1.05
A16G C35A C87G U109C G126C C149G | ≤ -4.2
A16G U33G A39C G58U U151G | ≤ -4.2
C14U G59A C87U U90G C114A | ≤ -4.2
U15C A49G C116A A138U | -3.99
U15A A91G G100C | ≤ -4.2
A16U C96A | -2.78
A16U A73G A107G A119G | ≤ -4.2
A16C C85A | -2.36
U15C C85U G92U G141C U144C | -3.03
U15C A91C G94U C96G | ≤ -4.2
U15C C99G | -0.377
C14U C36A A73G G83A G86A | ≤ -4.2
U15C G92A C99G U148A | ≤ -4.2
A16U C51A G74U C87A A107U | ≤ -4.2
A16G C96A | -0.881
C14U A89U C93U | -3.88
C14U A66U U78C | ≤ -4.2
C14U G34A G84U G140U | ≤ -4.2

From the RNAGym collection of RNA variant scans (doi:10.1073/pnas.2313332121)
